Experimental findings from patent publication US20240109962A1 (SPARX BIOSCIENCE, published 2024) are described below.

For orientation: Kd means the constant that tells how readily two partners part at equilibrium. Lower therefore signals higher affinity. One may read the IC50 as the point on the concentration scale where inhibition reaches its midpoint. Usually koff stands for the first-order rate constant of dissociation. The kon is the rate constant with which the complex forms. Read a high kon as fast association.

Substitutions are numbered along the chain they refer to.

The chains are these.
B1: Antibody 15A6 (antibody, V domains shown)
VH: EVKLVESGGDLVKPGGSLKLSCAASGFTFSTYGMSWVRQTPEKRLEWVATISGSNSYTYYPDSVKGRFTISRDNAKNNLYLQMSSLRSEDTALYYCTRHENGYYFYAMDYWGQGTSVTVSS
VL: DVQITQSPSYLTASPGETITINCRSSKSITKYLAWYQEKPGKTNKLLIYSGSTLQSGIPSRFSGSGSGTDFTLTISSLEPEDFAMYYCQQHSEYPWTFGGGTRLEIK
notes: Mouse hybridoma mAb purified from ascites
B2: Antibody 6H8 (antibody, V domains shown)
VH: QIQLVQSGPELKKPGETVRISCKASGYTFTNYGMNWVKQAPGKGLKWMGWINTYTGEPTYADDFRGRFALSLEPSASTASLQINNLKNEDTATYFCARYYDYDYFDYWGQGTTLTVSS
VL: DIVMTQSPSSLRVSAGEKVTMSCKSSQSLLNGGNQKNYLAWYQQKPGQPPKVLIYGASTRVSGVPDRFTGRGSGIDFTLTISSVEAEDLAVYYCQNDLSYPLTFGAGTKLELK
notes: as for B1
B3: Antibody 7C12 (antibody, V domains shown)
VH: EVQLQQSGPDLVKPGASVKISCKASGYIFTDFNMHWVKQSHGKSLEWIGYIYPFNGGTGYNQKFENMATLTVDISSSTAYMEVRSLTSEDSAVYYCARRGGRGHFDYWGQGTTLTVSS
VL: DIQMTQSPASLSASVGETVTVTCRASGNIHNYLAWYQQKQGKSPQLLVYNAKTLADGVPSRFSGSGSGIQFSLKINSLQPEDFGSYYCQHFWNTPFTFGSGTKLEIK
notes: as for B1
B4: Antibody 2C1 (antibody, V domains shown)
VH: EVKLVEPGGGLVQPGGSLRLSCATSGFTFSDFYMGWVRQPPGKRLEWIAASGNKAHDYATEYSASVKGRFFVSRDTFQSILYLQMNALRAEDTAIYYCARSYYYGSSAWFTYWGQGTLVTVSV
VL: DIVMTQSHKFMSTSIRDRVTIACKASQDVGTAVAWYQQKPGQSPKLLIFWASTRHAGVPDRFTGSGSGTDFTLTISNVQSEDLTDYFCQQYSSYPLTFGAGTKLELK
notes: as for B1
B5: Antibody 3C12 (antibody, V domains shown)
VH: QVQLKESGPGLVAPSQSLSITCTVSGFSLTSYGVHWVRQSPGKGLEWLGVIWAGGTTNYNSALMSRLSISKDNSKSQVFLKMNSLQADDTAMYYCARGGYGHSMDYWGQGTSVTVSS
VL: DIVMTQSHKFMSTSVGDRVSITCKASQDVSNAVAWYQQKPGQSPKLLIYSASYRYTGVPDRFTGSGSGTDFIFTISSVQAEDLAVYYCQQHYSTPFTFGSGTKLEIK
notes: as for B1
B6: Antibody 3B5 (antibody, V domains shown)
VH: EVQLQQSGPELVKPGASLKISCKASGYTFTDYNMHWVKQSHGKSLEWIGSIYPYNGDTDYNQKFKSKATLTIDNSSSTAFMDLRSLTSEDSAVYYCARENDYDGPPFPYWGLGTLVTVSA
VL: DIQMTQSSSSFSVSLGDRVTITCKASEDIYNRLAWYQQKSGNAPRLLISGATSLETGVPSRFSGSGSGKDYTLSITSLQTEDVATYYCQQYWSIRTFGGGTKLEIK
notes: as for B1
B7: Antibody 8A4 (antibody, V domains shown)
VH: QVQLKESGPGLVAPSQSLSITCTVSGFSLTDYGVNWVRQPPGKGLEWLGMIWGDGNTDYNSALKSRLSISKVNSKSQVFLKMNSLQTDDTARYYCARSSYRYDENIYYYAMDYWGQGTSVTVSS
VL: DIVMTQSPSSLTVTAGEEVTLSCKSSQSLLNSGIQKNYLTWYQQKPGQPPKLLIYWASTRESGVPDRFTGSVSGTDFTLTISSVQAEDLAVYYCQNDYSLPFTFGSGTKLEIK
notes: as for B1
B8: Antibody 12D8 (antibody, V domains shown)
VH: QVQLRQSGPGLVQPSQSLSITCTVSGFSLTSYGVHWVRQSPGKGLEWLGVIWSGGITDYNAAFISRLSISKDNSKSQVFFRMNSLQTNDTAIYYCAREIYGNPDYWGQGTTLTVSS
VL: B5 VL with N31I, Y36F, T63S, I72T, F96R, S100G
notes: as for B1
B9: Antibody h#2D1 (antibody, V domains shown)
VH: EVQLVESGGGLVQPGGSLRLSCAVSGYSITSGYYWNWVRQAPGKGLEWVAYISYDGNNNYNPSLKNRFTISRDTSKNTVYLQMNSLRAEDTAVYYCVREESTMITTAWFAYWGQGTLVTVSS
VL: DIQMTQSPSSLSASVGDRVTITCRASENIYSNLAWYQQKPGKAPKLLIYGATNLASGVPSRFSGSGSGTDYTLTISSLQPEDFATYYCQHFWDTPYTFGQGTKVEIK
notes: Humanized variant of 11B12
B10: Antibody h#2G6 (antibody, V domains shown)
VH: B9 VH with T74A, V79F, V97A
VL: B9 VL
notes: Humanized variant of 11B12
B11: Antibody h#2D4 (antibody, V domains shown)
VH: B9 VH with V79F
VL: B9 VL
notes: Humanized variant of 11B12

T4 sequence (Q8N423 22-460 limits assumed): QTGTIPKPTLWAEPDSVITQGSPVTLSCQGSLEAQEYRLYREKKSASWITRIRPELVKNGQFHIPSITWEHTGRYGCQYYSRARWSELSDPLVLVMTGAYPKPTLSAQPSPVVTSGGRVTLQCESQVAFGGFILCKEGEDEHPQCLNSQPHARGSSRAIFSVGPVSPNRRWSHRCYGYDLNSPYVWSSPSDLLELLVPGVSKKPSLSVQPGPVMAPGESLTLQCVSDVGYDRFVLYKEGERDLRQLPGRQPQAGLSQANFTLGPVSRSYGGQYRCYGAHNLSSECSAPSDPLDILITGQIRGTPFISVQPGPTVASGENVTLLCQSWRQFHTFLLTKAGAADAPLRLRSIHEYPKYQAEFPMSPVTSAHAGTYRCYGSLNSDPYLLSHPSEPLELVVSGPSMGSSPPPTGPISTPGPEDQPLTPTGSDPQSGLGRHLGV
T1 sequence (Q8NHL6 24-650): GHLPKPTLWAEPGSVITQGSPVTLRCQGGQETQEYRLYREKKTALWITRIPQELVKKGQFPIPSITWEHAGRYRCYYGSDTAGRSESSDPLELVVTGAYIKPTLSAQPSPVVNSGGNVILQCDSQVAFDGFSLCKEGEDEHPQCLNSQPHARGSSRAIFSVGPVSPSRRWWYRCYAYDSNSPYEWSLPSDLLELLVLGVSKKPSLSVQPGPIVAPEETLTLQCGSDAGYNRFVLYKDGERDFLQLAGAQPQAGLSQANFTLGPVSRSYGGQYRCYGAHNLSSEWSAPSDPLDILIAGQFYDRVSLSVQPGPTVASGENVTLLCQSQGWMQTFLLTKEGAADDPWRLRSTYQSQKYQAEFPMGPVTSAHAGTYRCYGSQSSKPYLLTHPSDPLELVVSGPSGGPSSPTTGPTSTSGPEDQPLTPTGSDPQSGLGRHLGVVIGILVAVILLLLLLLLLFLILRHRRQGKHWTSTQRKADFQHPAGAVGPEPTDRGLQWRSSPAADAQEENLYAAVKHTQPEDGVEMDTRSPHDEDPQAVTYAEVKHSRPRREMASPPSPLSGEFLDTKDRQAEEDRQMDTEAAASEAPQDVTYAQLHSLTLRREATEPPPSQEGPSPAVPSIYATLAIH

The first assay has as its target T1, human LILRB1 expressed on 293T cells (human, UniProt Q8NHL6 24-650).
T1 construct: whole, on cells
In words: cell ELISA on fixed 293T transfectants, OD490. How it is done:
(§1) The cells were then immobilized with glutaraldehyde in the presence of 5% defatted milk at room temperature for 2 hours. An anti-LILRB2 antibody (2 μg/ml) was added to each well and incubated at room temperature for 2 hours. An HRP-labelled goat anti-mouse secondary antibody was then added into each well and incubated at room temperature for one hour. An HRP substrate, o-phenylenediamine dihydrochloride (OPD) was then added to each well. The plate was incubated at room temperature for 15 min to allow color development and OD₄₉₀ values were determined.
In general terms: An ELISA detects its analyte on a solid surface through an enzyme-linked reagent.
As to B1, the binding result is reported as “no binding (tested: 2 µg/ml)”.

Regarding B2, the binding result is recorded as “no binding (tested: 2 µg/ml)”.

For B3, the binding result is “no binding (tested: 2 µg/ml)”.

Consider B4, for which the binding result is on record as “no binding (tested: 2 µg/ml)”.

In the case of B5, the binding result is given as “no binding (tested: 2 µg/ml)”.

For a further assay, the target named is T2, human LILRB3 expressed on 293T cells (human, UniProt O75022 24-631).
T2 construct: whole, on cells
Briefly: cell ELISA on fixed 293T transfectants, OD490. How it is done:
as §1
B2: the binding result is recorded as “no binding (tested: 2 µg/ml)”.

Take B3: the binding result is given as “no binding (tested: 2 µg/ml)”.

B4: the binding result is “no binding (tested: 2 µg/ml)”.

As to B5, the binding result was “no binding (tested: 2 µg/ml)”.

The target in the next assay is T1, human LILRB1 expressed on 293T cells. Briefly: flow cytometry on 293T transfectants, MFI. On the procedure:
(§2) The cells were then immobilized with glutaraldehyde in the presence of 5% defatted milk at room temperature for 2 hours. An anti-LILRB2 antibody (5 μg/ml) was added to each well and incubated at room temperature for 1 hours. An Alex Flour®-labelled goat anti-mouse secondary antibody (1:2,000 dilution) was then added into each well and incubated at room temperature for 30′. The cells were washed twice with PBS after the staining. Fluorescence intensities (MFI) were measured.
As to B6, the binding result is listed as “no binding (tested: 5 µg/ml)”.

Turning to B7, the binding result is reported as “no binding (tested: 5 µg/ml)”.

As to B8, the binding result was “no binding (tested: 5 µg/ml)”.

The next assay deals with T2, human LILRB3 expressed on 293T cells. Briefly: flow cytometry on 293T transfectants, MFI. How it is done: as §2
Background: Flow cytometry measures light scatter and fluorescence of single cells or particles in a stream.
As for B6, the binding result is “no binding (tested: 5 µg/ml)”.

For the molecule B7, the binding result is on record as “no binding (tested: 5 µg/ml)”.

As to B8, the binding result is listed as “no binding (tested: 5 µg/ml)”.

For another assay, the target named is LILRB2 antigen of the ELISA of Table 5 (format not specified) (UniProt Q8N423 22-460, limits assumed). Briefly: ELISA, antibody titration.
LILRB2 antigen of the ELISA of Table 5 (format not specified), sequence (Q8N423 22-460 limits assumed): as the sequence (Q8N423 22-460 limits assumed) above
In the case of B1, binding was characterised by a dissociation constant (Kd) of 0.725 nM.

As to B2, the Kd turned out to be 5.7 nM.

Consider B6, for which the Kd came to 2.93 nM.

For B3, the Kd was found to be 0.631 nM.

B7 displayed a Kd of 0.493 nM.

As to B8, the Kd turned out to be 4.37 nM.

Take B5: the Kd was 5.01 nM.

The target of the next assay is T3, human LILRB2 expressed on cells (293T-LILRB2, CHO-K1-LILRB2) (human, UniProt Q8N423 22-597).
T3 construct: whole, on cells; the cell line is named under assay; also called HEK293T-LILRB2
T3 sequence (Q8N423 22-597): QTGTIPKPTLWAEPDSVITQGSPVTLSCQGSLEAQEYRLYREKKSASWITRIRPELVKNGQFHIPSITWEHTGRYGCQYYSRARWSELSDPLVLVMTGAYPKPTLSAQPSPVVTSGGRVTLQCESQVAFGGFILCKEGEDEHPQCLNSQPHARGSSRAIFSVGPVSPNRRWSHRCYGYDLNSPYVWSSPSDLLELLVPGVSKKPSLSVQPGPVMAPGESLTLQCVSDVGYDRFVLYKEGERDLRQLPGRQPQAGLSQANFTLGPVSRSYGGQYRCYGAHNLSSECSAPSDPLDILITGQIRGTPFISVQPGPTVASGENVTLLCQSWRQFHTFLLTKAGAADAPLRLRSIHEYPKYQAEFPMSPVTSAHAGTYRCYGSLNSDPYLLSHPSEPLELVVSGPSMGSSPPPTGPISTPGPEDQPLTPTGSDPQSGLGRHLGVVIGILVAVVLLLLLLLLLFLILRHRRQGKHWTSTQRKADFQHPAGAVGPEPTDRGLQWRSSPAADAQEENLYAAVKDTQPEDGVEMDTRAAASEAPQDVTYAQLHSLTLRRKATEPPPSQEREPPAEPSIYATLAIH
Briefly: flow cytometry, blockade of His-tagged HLA-G tetramer binding to 293T-LILRB2 cells; fit table under the graph. On the procedure: Serial diluted humanized LILRB2 antibodies were then added to the mixture and incubated at room temperature for another 45 minutes. The binding of HLA-G/LILRB2 was detected afterwards using a secondary PE-labeled anti-His tag antibody via flow cytometry.
On to B9, for which the IC50 was 0.613 nM and the Span came to 6830 RFU.

Molecule B10 had an IC50 of 0.391 nM and a Span of 7660 RFU.

On to B11, for which the IC50 was determined as 0.429 nM and the Span came out at 7190 RFU.

Another assay concerns the target T4, His-tagged human LILRB2 polypeptide (human, UniProt Q8N423 22-460).
T4 construct: SPR analyte; also called His-tagged human LILBR2 polypeptide; not shown: His tag
Briefly: SPR, antibody on CM5 chip, His-LILRB2 analyte, 1:1 model. On the procedure:
Surface plasmon resonance (SPR) was used to examine binding activities of exemplary anti-LILBR2 antibodies disclosed herein. Briefly, the anti-LILBR2 antibody was diluted in a coating buffer to a concentration of 30 μg/ml, loaded onto CM5 chips at 10 μl/min to allow coating of the antibody on the surface of the CM5 chip. […] Binding affinity was measured based on the 1:1 binding model.
(In general: In SPR one partner is held on a chip, and binding of the other changes the refractive index at the surface.)
B1 came in with a Kd of 5.45 nM, a koff of 0.00137 s⁻¹ and a kon of 251000 M⁻¹ s⁻¹.

With B3, binding was characterised by a dissociation constant (Kd) of 0.792 nM, the koff came out at 0.000209 s⁻¹ and the on-rate constant (kon) worked out at 263000 M⁻¹ s⁻¹.

B7 came in with a Kd of 0.185 nM, a koff of 0.000174 s⁻¹ and a kon of 940000 M⁻¹ s⁻¹.

Consider B8, for which the Kd worked out at 0.227 nM, the koff is 0.00014 s⁻¹ and the kon is 618000 M⁻¹ s⁻¹.

A further assay addresses T5, LILRB3-His.
T5 construct: also called His-tagged LILRB3; recombinant LILRB3 protein
In words: ELISA on recombinant His-tagged protein, OD450.
Regarding B2, the binding result is given as “no binding”.

With B6, the binding result is “no binding”.

For B7, the binding result is on record as “no binding”.

For B5, the binding result is “no binding”.

For the next assay, the target named is T6, LILRB1-His.
T6 construct: also called His-tagged LILRB1; recombinant LILRB1 protein
T6 sequence (chain, as listed by the source limits assumed): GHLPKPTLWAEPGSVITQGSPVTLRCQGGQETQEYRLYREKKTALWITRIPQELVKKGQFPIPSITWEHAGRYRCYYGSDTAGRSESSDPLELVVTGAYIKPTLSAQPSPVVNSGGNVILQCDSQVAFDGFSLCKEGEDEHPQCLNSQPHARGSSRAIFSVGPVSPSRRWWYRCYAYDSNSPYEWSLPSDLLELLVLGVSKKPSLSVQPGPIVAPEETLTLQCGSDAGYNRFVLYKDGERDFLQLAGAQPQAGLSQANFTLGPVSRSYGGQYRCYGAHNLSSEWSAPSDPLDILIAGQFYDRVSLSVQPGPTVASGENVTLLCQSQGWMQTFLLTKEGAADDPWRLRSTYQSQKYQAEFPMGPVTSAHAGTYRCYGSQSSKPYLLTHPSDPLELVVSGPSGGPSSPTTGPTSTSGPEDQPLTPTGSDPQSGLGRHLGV
In words: ELISA on recombinant His-tagged protein, OD450.
For the molecule B2, the binding result is “no binding”.

With B6, the binding result is reported as “no binding”.

Regarding B7, the binding result is reported as “no binding”.

Take B8: the binding result is “no binding”.

In the case of B5, the binding result was “no binding”.

In a further assay the target is T3, human LILRB2 expressed on cells …. In words: flow cytometry on 293T-LILRB2 cells, serial dilution, APC anti-human IgG; fit table under the graph. The source says: The cells were washed and then subject to flow cytometry to measure levels of fluorescent signals.
Molecule B9 showed a Bmax of 565000 RFU and a Kd of 0.412 nM.

The molecule B10 displayed a Bmax of 582000 RFU and a Kd of 0.292 nM.

For B11, the Bmax was determined as 563000 RFU and the affinity, expressed as Kd, was 0.386 nM.
